Experimental data: a protein production outcome set (Wang et al. 2014)

Assay: label from the status in PepcDB records
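Note: failed if final PepcDB status was selected cloned or expressed and not failed if soluble or beyond.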

Row | Sequence | protein production
1 | MENFAEIVGIGPAGVISITGGGGKTSLMFHLARQLAYSGKRVLTTTTTKILAPSVEESRTLLISQDPQVILRHAKAHPGPGVHVSAAAGHIPHTEKLQGFPREAIRTFEDSGEFDWVVVEADGAARKPLKAPAAHEPVIPGNSTIVVALAGLEVLGRPLGEEMVFRSELAGELMQIPQGETITVPALARLLAHPSGGFKGAPPQARRFIFLNKADTPELQEKGGEVALQLKEIAPSVAEAVIVGQLRQEITLHRVYPRGELEHHHHHH | not failed
2 | MENIKNPKNADDCSDSISKNSHQGVDDSLNQSRSYVCSFCIRGFSNAQALGGHMNIHRRDRAKLRQKLMEDNKDDVVAESDASEVVSLDLNEQQQQQGEALTCDDHDQYVDNDISPKQKLEFWVQESKLDTNDHGKVTEASIDGSSSSHHRDIEVLDLELRLGQSVVKKKTT | failed
3 | MENKRNVCSLGESSIKRHKSDLSFSSKERKDKVGERISALQQIVSPYGKFPCSFVQVLSAPYLQTVPDATQEELEQYSLRNRGLCLVPMENTVGVAQSNGADIWAPVKTPLSPAFSVTSQSPFR | failed
4 | MENQTPSQALISKGWKYFIIVGVIVALAGLGATSLPVMAGVTISTIIGTLLLITGLVQVYHTFRIHSWKEKLWYVLSALFYIVGALFILFKPLEGLMTITTIMIVIMIFNGLTRMIFGFTNRSLPGCGMVILSGLLSVVIGGYFFSLFDNPEFSLSLLGTFVGVSLIFEGMSFLFIGLRLRNASKA | failed
5 | MENRAHAFLAGLFTIGLAIFIALAVVWFNRDQTVRVPYEVVTRSTVNGLSPQAAVKYRGLDVGKVDSIRFDDRVPGQIIVRVLVDKDAPITTTTYGRLAYQGVTGLAYVQLDDRGYDGGKRAANPTRLETSDRRPARIAMEAGFLDELDKRGDQMLARIDQTLSSLSALFDDEHRQALMAAMQSFQGTMDSYNALARQAEPTMRRLPQIADNLDATLSATRRLSQSLSDPKGPLMGTLASAGNDLSSASQSMQAATNVLANETLPQLNGFAREARQAVRSFDHAVTDFNTRPQSVLFGPAPATPGPGETGFAAPQVSAAPSVAVPATARP | failed
6 | MENWVIQIIERLGYLGIAFLMFLDNVFPPIPSEIIMPSAGYTASRGQLQIIGVIVAGSLGSILAAAILYALGRQISHAALFRWTDRYGKYLLIQTKDLQIALEWFEKYGHRIVFFGRMIPAVRSLISIPAGMSRMPFWKFMLYSSLGTVIWTTFLAGVGFYFGENQAFMFSIMHRVGYLILAITLMVSVWWIYHKFYKKR | failed
7 | MEPAILIITLICGMLVSRIGLPPLIGYLVAGFVLFVMGIEKESMPLLQELANLGVTLLLFAIGLKLDIRSLFKAEVWAGSSVHLILSILVFVPILKILGLLGLSQLTSLGIEQLTLLAFALSFSSTVFAVKVLEDKGDMQSLYGRVAIGILIMQDIFAVLFLTISKGDVPSVWAFALLLLPLAKPLIYKAFDRVGHGELLVLFGLVMALVVGAWLFESLGLKPDLGALVIGILLAGHKKASELAKSLFYFKELFLVAFFLTIGLNGLPTVSDIVLAALLVLLVPLKILLFVYILTRFKLRSRTSMLGSFNLGNFSEFGLIVAAVATSKGWLPSHWLVIIAVALSFSFLLAAPLNATVGSIYQRFQLRLVRLEKRPLHPEDRPIAIGNPRFLILGMGRIGSGAYDELRARFDGEILGIEHKQDLVDLHRAKGRNVVQGDASDTDFWEKLDKAPNLELVLLAMPHHAGNLFAVEQLNKLNYQGKISAIVQYGEDAASLRNSGVHSVYNLYEAAGAGFVDHVVHELLPDSETKAGTEAQEGTQKQTSSLV | failed
8 | MEPEEERIRYSQRLRGTMRRRYEDDGISDDEIEGKRTFDLEEKLHTNKYNANFVTFMEGKDFNVEYIQRGGLRDPLIFKNSDGLGIKMPDPDFTVNDVKMCVGSRRMVDVMDVNTQKGIEMTMAQWTRYYETPEEEREKLYNVISLEFSHTRLENMVQRPSTVDFIDWVDNMWPRHLKESQTESTNAILEMQYPKVQKYCLMSVRGCYTDFHVDFGGTSVWYHIHQGGKVFWLIPPTAHNLELYENWLLSGKQGDIFLGDRVSDCQRIELKQGYTFVIPSGWIHAVYTPTDTLVFGGNFLHSFNIPMQLKIYNIEDRTRVPNKFRYPFYYEMCWYVLERYVYCITNRSHLTKEFQKESLSMDLELNGLESGNGDEEAVDREPRRLSSRRSVLTSPVANGVNLDYDGLGKTCRSLPSLKKTLAGDSSSDCSRGSHNGQVWDPQCAPRKDRQVHLTHFELEGLRCLVDKLESLPLHKKCVPTGIEDEDALIADVKILLEELANSDPKLALTGVPIVQWPKRDKLKFPTRPKVRVPTIPITKPHTMKPAPRLTPVRPAAASPIVSGARRRRVRCRKCKACVQGECGVCHYCRDMKKFGGPGRMKQSCVLRQCLAPRLPHSVTCSLCGEVDQNEETQDFEKKLMECCICNEIVHPGCLQMDGEGLLNEELPNCWECPKCYQEDSSEKAQKRKMEESDEEAVQAKVLRPLRSCDEPLTPPPHSPTSMLQLIHDPVSPRGMVTRSSPGAGPSDHHSASRDERFKRRQLLRLQATERTMVREKENNPSGKKELSEVEKAKIRGSYLTVTLQRPTKELHGTSIVPKLQAITASSANLRHSPRVLVQHCPARTPQRGDEEGLGGEEEEEEEEEEEDDSAEEGGAARLNGRGSWAQDGDESWMQREVWMSVFRYLSRRELCECMRVCKTWYKWCCDKRLWTKIDLSRCKAIVPQALSGIIKRQPVSLDLSWTNISKKQLTWLVNRLPGLKDLLLAGCSWSAVSALSTSSCPLLRTLDLRWAVGIKDPQIRDLLTPPADKPGQDNRSKLRNMTDFRLAGLDITDATLRLIIRHMPLLSRLDLSHCSHLTDQSSNLLTAVGSSTRYSLTELNMAGCNKLTDQTLIYLRRIANVTLIDLRGCKQITRKACEHFISDLSINSLYCLSDEKLIQKIS | failed
9 | MEPGPEDYLVCAIAKPADKRLVVEKLLGKGARFFTLIHPSVIMGENVVIGQGAVICPSTVLSVDLRIGAFVTLNIGCLVGHDADIGDFSTLSGHCDITGGVVLEEEVFMGTHASVLPNVKVGKQAVVGAGSVAIRNVAAGITVFGVPAKRISGLEHHHHHH | failed
10 | MEPIVFNGYHTLITATLVLLVGRFFVNKIKVLQDFNIPEAVAGGLIAAVAILCLYNWFGVSLQFEQSLQNAFMLAFFSSVGLSADFSRLKQGGMPLVIFLVVVSLYIIIQNVIGVGLASALGLDPMIGLLTGSITLTGGHGTGAAWAKIFSEEYNITGVMEMAMASATFGLVAGGLIGGPIARRLINKMKKDRSQQITKRVDTSAEQYDGSTFEDHDSIRYITASSTIETMALFAACLGFSSIIVNTFPDISLPQFVWALGFGVILRNVLTKVFKFDMFDRAIDVFGNASLSMFLAMALMSIKLWELTGLAGPMLIILVVQTLVMILYGYFVTYRVMGKDYDAAILTAGHCGFGLGATPTAVANMQSVTEKFGSSHKAFLIVPLVGAFFVDILNLAVITSFVDFLR | failed
11 | MEPNIYQLALAALFGASFVAVSGFFMHFKALNLVLERGKERKENPDGDEPQNPTLVRRRSQVRRKVNDQYGRSPASLPDATPFTDGGGGGGGDTGRSNGHVYVDEIPPGLPRLHTPSEGRASVHGASSIRKTGSFVRPISPKSPVASASAFESVEESDDDDNLTNSEGLDASYLQANGDNEMPADANEEQISMAASSMIRSHSVSGDLHGVQPDPIAADILRKEPEQETFVRLNVPLEVPTSDEVEAYKCLQECLELRKRYVFQETVAPWEKEVISDPSTPKPNTEPFAHYPQGKSDHCFEMQDGVVHVFANKDAKEDLFPVADATAFFTDLHHVLKVIAAGNIRTLCHRRLVLLEQKFNLHLMLNADKEFLAQKSAPHRDFYNVRKVDTHVHHSACMNQKHLLRFIKSKLRKEPDEVVIFRDGTYLTLREVFESLDLTGYDLNVDLLDVHADKSTFHRFDKFNLKYNPCGQSRLREIFLKQDNLIQGRFLGEITKQVFSDLEASKYQMAEYRISIYGRKMSEWDQLASWIVNNDLYSENVVWLIQLPRLYNIYKDMGIVTSFQNILDNIFIPLFEATVDPDSHPQLHVFLKQVVGFDLVDDESKPERRPTKHMPTPAQWTNAFNPAFSYYVYYCYANLYVLNKLRESKGMTTITLRPHSGEAGDIDHLAATFLTCHSIAHGINLRKSPVLQYLYYLAQIGLAMSPLSNNSLFLDYHRNPFPVFFLRGLNVSLSTDDPLQIHLTKEPLVEEYSIAASVWKLSACDLCEIARNSVYQSGFSHALKSHWIGKDYYKRGPDGNDIHKTNVPHIRVEFRDTIWKEEMQQVYLGKAVISDEVVP | not failed
12 | MEPTAPAPTPAATRNTESTAKIVYVLYLLSFAAGITTLIGVVMAYVNEGDAPEGLRTHYRFQIRTFWIGLLYAVVGGLLTIVGIGALILLFVAVWLVIRCVKGLKWLDQRQPVPNPATWLW | failed
13 | MEPTDVSTGTGKVLLLDTKRYGYWKVCMTQIIRGQEDGFKITKPKANWTAEEKLQSKFNARAMKAIFNGVDEDEFKLIQGCKSAKQAWDTLQKSHEGTSSVKRTRLDHIATQFEYLKMEPDEKIVKFSSKISALANEAEVMGKTYKDQKLVKKLLRCLPPKFAAHKAVMRVAGNTDKISFVDLVGMLKLEEMKADQDKVKPSKNIAFNADQGSEQFQEIKDGMALLARNFGKALKRVEIDGERSRGRFSRSENDDLRKKKEIQCYECGGFGHIKPECPITKRKEMKCLKCKGVGHTKFECPNKSKLKEKSLISFSDSESDDEGEELLNFVAFMASSDSSKFMSDTDSDCDEELNPKDKYRVLYDSWVQLSKDKLKLVKEKLTLEAKLANVSTEDKQKLSGITVDGNSQDYYQKKLDCLQKECHRERDRTKLLERELNDKYKQIRMLNKGLESLDKILAMGRTDSQQRGLGYQGYTGKIKKEEGRVINFVSGGSTSETVVRQSYIEPKKQVKSHVEIKRESVVRTRMVGVICCDHCGKRFHMREQCYKFKEKVRTLWNLAKCFIEPSRFCTVWIKKKDLYGDMEAERYNHKLERMYEEEEMHYASCCNQVNKEMQDEARKKDDSFGST | failed
14 | MEQADVTSLIPILITLFLALTTRNVVVGLFAGVVSGVAMLEGTFVEKGPLDSFSALMKSYLLPQLTDSYNAGVILLLVFIGGFVALMEKSGGGVAFAKKVTQWVASKCQAQLSAWFGGVVIFFSDLGTPLIVGPVFRPLFDKLKVSRQKLAFIIDSTSSPVAILIPFIGWGVYIMGLIQKEFTALNVSMSDWDAFIGAIPYQFYAFLAIAIVPIVSFFKLDFGPMAKAEQLAEQGSDFGKEQESMNVFTHKNAKSSFVWAPLLVMLVVLCTILVPHGFPFQKVAGSTFRAALSSAYFFAAFTLIALMAFYGVRKLSDGIQVYLKGMSNMMSVAVILVLAWALSSVGKELGAAAYIAEQAQAGFPYWLLPAVAFLLAGIISFATGSSWGTFAIMMPLVIPTAVAIDAPLLVCIGAVLSGGLFGDHCSPISETTILSSTGAGCEQYEHFRTQLPYAVLNGVIALVCFLLAGVAASPVIVLAAIVAQFAIYYVLSKQKPTEQLESVSAE | failed
15 | MEQEEPCEAKETASSSIEPKTPNPNVPDSIPAIDSDSSLSEEEIVTEKDRGIVTLSPLCKQRIDSASISDCVLVSDDEIIESLYQNLLRVILSLQQIQSVAVVPEIWCFDGCKTPPPSSRNLDSNMVSDTCPGAPMKLTKISRNIDSGLRRKLF | failed
16 | MEQFLDNIKDLEVTTVVRAQEALDKKETATFFIGRKTCPYCRKFAGTLSGVVAETKAHIYFINSEEPSQLNDLQAFRSRYGIPTVPGFVHITDGQINVRCDSSMSAQEIKDFAGL | not failed
17 | MEQKSKFSSATVFSGKLLIASLFILSGILLFARNMGWITAELFNIIVSWHSLLIILGIYSMIRRHFVGGIILVLVGVYFLLGGLSWLPENSQAMVWPLALIIAGVLFLFKSRHRGPWDDKQRMFRDHREWMKHGHHGHAGMNFTDNQQQCESEDGFLRSDNTFGAARHVVLDELFKGAVVRTSCGGTTIDLRHTHIAPGETYIDIDCSWGGVEIYVPSDWKVVFKCNTFFGGCDDKRWQNGNINKESVLVIRGRLSFGGLEVKD | failed
